For experiment [1], the target named is SETDB1 peptide RQVAVKme2STRGFALKme2STHGIAIKme2STN (human).
Experiment [2] addresses SETDB1 peptide RQVAVKme3STRGFALKme3STHGIAIKme3STN (human).

For “Cbx7 chromodomain, Cbx7-(8–62) (from UniProt O95931 8-62) (domain or fragment)”, the Kd (commonly the constant that tells how readily two partners part at equilibrium) in experiment [1] came to 15 µM; in experiment [2] it was 1.2 µM.

For the substance “Cbx8 chromodomain, Cbx8-(8–61) (from UniProt Q9HC52 8-61) (domain or fragment)”, the Kd in experiment [1] was found to be 180 µM.
